Biological target: SF3B1 N-terminal region, residues 147-462 (SFB1^147-462) (human) (UniProt O75533)
Assay: ITC

Sequence of SF3B1 N-terminal region, residues 147-462 (SFB1^147-462) (human) (O75533 147-462): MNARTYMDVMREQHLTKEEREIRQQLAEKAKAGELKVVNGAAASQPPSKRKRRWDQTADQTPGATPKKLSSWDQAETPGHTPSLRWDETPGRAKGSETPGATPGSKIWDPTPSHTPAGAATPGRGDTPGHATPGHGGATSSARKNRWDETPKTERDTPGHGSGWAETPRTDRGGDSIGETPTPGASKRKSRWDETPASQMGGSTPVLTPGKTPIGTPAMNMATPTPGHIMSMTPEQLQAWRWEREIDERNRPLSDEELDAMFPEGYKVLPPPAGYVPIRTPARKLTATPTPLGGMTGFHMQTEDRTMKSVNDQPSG

- stoichiometry N (U2AF2^12UL per SF3B1 ULM region): 2
Substance: U2AF2^12UL (nearly full-length U2AF2, residues 141-471) (domain or fragment)

From doi:10.1101/2022.01.09.475535
